Reference: the supplement of paper PMC10567573

B1: ZNF232 (parent)
chain: HSGEKPFICKECGKAYGWCSELIR

Variants of: B1
Assay: protein stability index of a GFP-peptide fusion (GPS, HEK-293T) (PSI 1-6); higher = more stable
Settings: c terminus: a fixed tail appended
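Also: lentivirally expressed fusions sorted by FACS into six bins by GFP to DsRed ratio, PSI derived from sequencing read proportions per bin multiplied by bin number.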

| Variant | protein stability index |
| --- | --- |
| HSGENPFICKECGKAYGWCSELIR [K5N] | 2.23 |
| HSGELPFICKECGKAYGWCSELIR [K5L] | 1.65 |
| HSGEAPFICKECGKAYGWCSELIR [K5A] | 2.1 |
| HSGECPFICKECGKAYGWCSELIR [K5C] | 1.8 |
| HSGEVPFICKECGKAYGWCSELIR [K5V] | 2.08 |
| HSGEHPFICKECGKAYGWCSELIR [K5H] | 1.84 |
| HSGEPPFICKECGKAYGWCSELIR [K5P] | 2.63 |
| HSGEYPFICKECGKAYGWCSELIR [K5Y] | 1.74 |
| HSGEQPFICKECGKAYGWCSELIR [K5Q] | 2.12 |
| HSGEMPFICKECGKAYGWCSELIR [K5M] | 2.05 |
| HSGESPFICKECGKAYGWCSELIR [K5S] | 2.21 |
| HSGEIPFICKECGKAYGWCSELIR [K5I] | 2.21 |
| HSGEFPFICKECGKAYGWCSELIR [K5F] | 1.65 |
| HSGEWPFICKECGKAYGWCSELIR [K5W] | 1.96 |
| HSGERPFICKECGKAYGWCSELIR [K5R] | 2.57 |
| HSGEEPFICKECGKAYGWCSELIR [K5E] | 3.4 |
| HSGETPFICKECGKAYGWCSELIR [K5T] | 1.86 |
| HSGEGPFICKECGKAYGWCSELIR [K5G] | 2.38 |
| HSGEDPFICKECGKAYGWCSELIR [K5D] | 2.17 |
| HSGEKPFICKWCGKAYGWCSELIR [E11W] | 2.14 |
| HSGEKPFICKMCGKAYGWCSELIR [E11M] | 2.02 |
| HSGEKPFICKYCGKAYGWCSELIR [E11Y] | 1.98 |
| HSGEKPFICKLCGKAYGWCSELIR [E11L] | 1.7 |
| HSGEKPFICKDCGKAYGWCSELIR [E11D] | 1.88 |

| Variant | protein stability index |
| --- | --- |
| HSGEKPFICKTCGKAYGWCSELIR [E11T] | 2.48 |
| HSGEKPFICKRCGKAYGWCSELIR [E11R] | 2.65 |
| HSGEKPFICKICGKAYGWCSELIR [E11I] | 2.27 |
| HSGEKPFICKCCGKAYGWCSELIR [E11C] | 2.3 |
| HSGEKPFICKVCGKAYGWCSELIR [E11V] | 2.04 |
| HSGEKPFICKSCGKAYGWCSELIR [E11S] | 2.31 |
| HSGEKPFICKNCGKAYGWCSELIR [E11N] | 1.61 |
| HSGEKPFICKACGKAYGWCSELIR [E11A] | 2.22 |
| HSGEKPFICKQCGKAYGWCSELIR [E11Q] | 1.52 |
| HSGEKPFICKFCGKAYGWCSELIR [E11F] | 1.77 |
| HSGEKPFICKHCGKAYGWCSELIR [E11H] | 2.24 |
| HSGEKPFICKKCGKAYGWCSELIR [E11K] | 1.62 |
| HSGEKPFICKPCGKAYGWCSELIR [E11P] | 1.58 |
| HSGEKPFICKGCGKAYGWCSELIR [E11G] | 2.19 |
| HSGEKPFGCKECGKAYGWCSELIR [I8G] | 2.01 |
| HSGEKPFHCKECGKAYGWCSELIR [I8H] | 1.79 |
| HSGEKPFVCKECGKAYGWCSELIR [I8V] | 1.58 |
| HSGEKPFNCKECGKAYGWCSELIR [I8N] | 2.58 |
| HSGEKPFPCKECGKAYGWCSELIR [I8P] | 1.81 |
| HSGEKPFWCKECGKAYGWCSELIR [I8W] | 1.69 |
| HSGEKPFSCKECGKAYGWCSELIR [I8S] | 2.28 |
| HSGEKPFTCKECGKAYGWCSELIR [I8T] | 1.23 |
| HSGEKPFFCKECGKAYGWCSELIR [I8F] | 1.51 |
| HSGEKPFECKECGKAYGWCSELIR [I8E] | 2.22 |

| Variant | protein stability index |
| --- | --- |
| HSGEKPFCCKECGKAYGWCSELIR [I8C] | 2.46 |
| HSGEKPFLCKECGKAYGWCSELIR [I8L] | 1.75 |
| HSGEKPFYCKECGKAYGWCSELIR [I8Y] | 1.74 |
| HSGEKPFMCKECGKAYGWCSELIR [I8M] | 2.38 |
| HSGEKPFRCKECGKAYGWCSELIR [I8R] | 1.44 |
| HSGEKPFKCKECGKAYGWCSELIR [I8K] | 2.09 |
| HSGEKPFACKECGKAYGWCSELIR [I8A] | 1.7 |
| HSGEKPFDCKECGKAYGWCSELIR [I8D] | 2.07 |
| HSGEKPFQCKECGKAYGWCSELIR [I8Q] | 2.02 |
| HSGEKPFICKEGGKAYGWCSELIR [C12G] | 2.15 |
| HSGEKPFICKEKGKAYGWCSELIR [C12K] | 2.33 |
| HSGEKPFICKEEGKAYGWCSELIR [C12E] | 2.64 |
| HSGEKPFICKELGKAYGWCSELIR [C12L] | 3.03 |
| HSGEKPFICKEIGKAYGWCSELIR [C12I] | 2.5 |
| HSGEKPFICKESGKAYGWCSELIR [C12S] | 2.42 |
| HSGEKPFICKETGKAYGWCSELIR [C12T] | 2.21 |
| HSGEKPFICKERGKAYGWCSELIR [C12R] | 1.79 |
| HSGEKPFICKEYGKAYGWCSELIR [C12Y] | 2.15 |
| HSGEKPFICKEDGKAYGWCSELIR [C12D] | 2.44 |
| HSGEKPFICKEMGKAYGWCSELIR [C12M] | 2.81 |
| HSGEKPFICKEVGKAYGWCSELIR [C12V] | 2.79 |
| HSGEKPFICKEPGKAYGWCSELIR [C12P] | 1.81 |
| HSGEKPFICKEQGKAYGWCSELIR [C12Q] | 1.88 |
| HSGEKPFICKEWGKAYGWCSELIR [C12W] | 2.18 |

| Variant | protein stability index |
| --- | --- |
| HSGEKPFICKEAGKAYGWCSELIR [C12A] | 1.85 |
| HSGEKPFICKENGKAYGWCSELIR [C12N] | 2.72 |
| HSGEKPFICKEFGKAYGWCSELIR [C12F] | 2.38 |
| HSGEKPFICKEHGKAYGWCSELIR [C12H] | 1.43 |
| HSGEKPVICKECGKAYGWCSELIR [F7V] | 1.89 |
| HSGEKPMICKECGKAYGWCSELIR [F7M] | 2.1 |
| HSGEKPRICKECGKAYGWCSELIR [F7R] | 2.12 |
| HSGEKPSICKECGKAYGWCSELIR [F7S] | 2.79 |
| HSGEKPCICKECGKAYGWCSELIR [F7C] | 1.73 |
| HSGEKPQICKECGKAYGWCSELIR [F7Q] | 2.08 |
| HSGEKPIICKECGKAYGWCSELIR [F7I] | 2.56 |
| HSGEKPPICKECGKAYGWCSELIR [F7P] | 2.11 |
| HSGEKPKICKECGKAYGWCSELIR [F7K] | 2.54 |
| HSGEKPAICKECGKAYGWCSELIR [F7A] | 2.22 |
| HSGEKPWICKECGKAYGWCSELIR [F7W] | 2.09 |
| HSGEKPYICKECGKAYGWCSELIR [F7Y] | 2.52 |
| HSGEKPNICKECGKAYGWCSELIR [F7N] | 2.24 |
| HSGEKPLICKECGKAYGWCSELIR [F7L] | 2.05 |
| HSGEKPTICKECGKAYGWCSELIR [F7T] | 2 |
| HSGEKPEICKECGKAYGWCSELIR [F7E] | 2.7 |
| HSGEKPDICKECGKAYGWCSELIR [F7D] | 2.29 |
| HSGEKPHICKECGKAYGWCSELIR [F7H] | 2.73 |
